Measurements as given in patent US20160168251A1.

Target: human NPRA on HEK293 cells, without added ligand (human) (UniProt P16066)
Assay: cell-based or functional assay

Sequence of human NPRA on HEK293 cells, without added ligand (human) (P16066 33-1061 limits assumed): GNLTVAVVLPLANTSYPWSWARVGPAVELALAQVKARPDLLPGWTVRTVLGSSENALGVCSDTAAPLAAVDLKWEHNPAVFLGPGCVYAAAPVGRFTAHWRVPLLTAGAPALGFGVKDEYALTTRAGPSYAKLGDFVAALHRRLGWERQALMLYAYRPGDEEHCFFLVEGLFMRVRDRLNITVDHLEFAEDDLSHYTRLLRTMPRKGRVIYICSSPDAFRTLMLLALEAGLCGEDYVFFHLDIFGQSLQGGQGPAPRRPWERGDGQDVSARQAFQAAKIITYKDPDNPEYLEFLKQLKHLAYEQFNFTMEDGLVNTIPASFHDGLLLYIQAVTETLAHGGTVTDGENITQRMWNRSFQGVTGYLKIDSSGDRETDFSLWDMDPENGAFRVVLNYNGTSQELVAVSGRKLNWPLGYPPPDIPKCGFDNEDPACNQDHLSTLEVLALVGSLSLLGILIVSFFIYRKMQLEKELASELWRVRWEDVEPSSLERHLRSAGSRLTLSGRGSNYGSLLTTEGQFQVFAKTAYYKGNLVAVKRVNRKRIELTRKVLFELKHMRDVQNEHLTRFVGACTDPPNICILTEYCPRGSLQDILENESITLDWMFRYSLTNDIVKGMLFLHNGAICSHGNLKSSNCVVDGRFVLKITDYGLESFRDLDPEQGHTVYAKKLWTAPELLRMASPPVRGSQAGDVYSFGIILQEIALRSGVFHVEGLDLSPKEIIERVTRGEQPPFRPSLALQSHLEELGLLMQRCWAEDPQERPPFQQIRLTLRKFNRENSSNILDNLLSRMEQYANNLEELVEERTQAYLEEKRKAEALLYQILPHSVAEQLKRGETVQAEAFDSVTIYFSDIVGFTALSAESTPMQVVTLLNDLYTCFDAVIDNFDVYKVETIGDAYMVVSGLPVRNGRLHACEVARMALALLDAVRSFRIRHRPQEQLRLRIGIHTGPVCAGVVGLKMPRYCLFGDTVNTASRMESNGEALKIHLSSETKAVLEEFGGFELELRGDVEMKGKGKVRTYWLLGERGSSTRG

For “B-type natriuretic peptide (BNP), free (from UniProt P16860 27-134) (ligand)”, which EC50 of BNP, cGMP production in HEK NPRA cells, in presence of negative control Fab is on record?
The EC50 of BNP, cGMP production in HEK NPRA cells, in presence of negative control Fab was 0.09 µM.
